Assay results taken from US20250249115A1, “COMBINATION THERAPY FOR TREATING TUMOR ANTIGEN EXPRESSING CANCERS” (Gilead Sciences, Inc., priority 2022, published 2025).
Each block holds one molecule with its values, some of them ahead of it.

Assays:
Mouse Trop-2 = molecular target: T1, Mouse Trop-2 (Mus musculus, UniProt Q8BGV3); experiment: Binding to mouse Trop-2 measured by surface plasmon resonance (SPR)
T1 sequence (Q8BGV3 25-317): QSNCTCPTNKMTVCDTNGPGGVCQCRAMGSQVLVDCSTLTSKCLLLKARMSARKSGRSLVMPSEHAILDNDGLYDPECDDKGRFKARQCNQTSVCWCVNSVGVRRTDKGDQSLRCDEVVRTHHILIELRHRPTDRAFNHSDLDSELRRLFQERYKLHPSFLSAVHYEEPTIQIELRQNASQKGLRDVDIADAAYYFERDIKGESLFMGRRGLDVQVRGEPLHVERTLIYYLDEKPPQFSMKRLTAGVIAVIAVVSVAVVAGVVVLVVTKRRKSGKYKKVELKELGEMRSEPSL
Excerpt: (§1) To engineer an anti-mouse Trop-2 ADC binding to mouse Trop-2 with proprieties similar to SG, we selected a commercially available anti-mouse Trop-2 rabbit antibody (Sino Biological, #50922-R064) and murinized it to obtain an anti-mouse Trop-2 IgG2a (Rab64/mG2a/mKap). Rab64 mAb was then coupled to CL2A linker/SN-38 payload at a high DAR (˜8-9).

Human Trop-2 = molecular target: T2, Human Trop-2 (Homo sapiens, UniProt P09758); experiment: Binding to human Trop-2 measured by surface plasmon resonance (SPR)
T2 sequence (P09758 27-323): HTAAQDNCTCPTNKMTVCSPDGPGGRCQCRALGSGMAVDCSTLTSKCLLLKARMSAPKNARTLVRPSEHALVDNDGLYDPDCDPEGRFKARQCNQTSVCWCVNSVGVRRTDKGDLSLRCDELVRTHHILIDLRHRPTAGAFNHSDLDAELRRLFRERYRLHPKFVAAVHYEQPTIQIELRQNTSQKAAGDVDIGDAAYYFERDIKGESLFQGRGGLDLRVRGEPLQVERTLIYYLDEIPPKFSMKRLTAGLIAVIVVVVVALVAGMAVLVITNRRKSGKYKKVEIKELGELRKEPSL
Excerpt: as §1

Human Trop-2 (human) = Human Trop-2 (human) (UniProt P09758); experiment: SPR

KD (Mouse Trop-2): No binding detected
Kd (Human Trop-2): 0.328 nM
Molecule: hRS7-hIgG1k: humanized monoclonal antibody hRS7 IgG1κ, which binds to Trop-2

Kd (Human Trop-2 (human)): 0.328 nM
koff (Human Trop-2 (human)): 0.000144 s⁻¹
kon (Human Trop-2 (human)): 440000 M⁻¹ s⁻¹
B1: hRS7-hIgG1k (antibody, INN chains, looked up, V domains shown)
VH: QVQLQQSGSELKKPGASVKVSCKASGYTFTNYGMNWVKQAPGQGLKWMGWINTYTGEPTYTDDFKGRFAFSLDTSVSTAYLQISSLKADDTAVYFCARGGFGSSYWYFDVWGQGSLVTVSS
VL: DIQLTQSPSSLSASVGDRVSITCKASQDVSIAVAWYQQKPGKAPKLLIYSASYRYTGVPDRFSGSGSGTDFTLTISSLQPEDFAVYYCQQHYITPLTFGAGTKVEIKR

Kd (Human Trop-2 (human)): 0.361 nM
koff (Human Trop-2 (human)): 0.000153 s⁻¹
kon (Human Trop-2 (human)): 423000 M⁻¹ s⁻¹
B2: Sacituzumab Govitecan (SG, Trodelvy) (antibody, INN chains, looked up, IgG1, V domains shown)
VH: B1 VH
VL: B1 VL
modifications: CL2A-SN-38, DAR 7.5
